Data on 14 sequences can be found in the DeepSol protein solubility set.

A short description of the series: soluble on expression in E. coli; label from the status in PepcDB or PDB records.
As to “MSLARHRGKTEKLYVIPLGGLGEIGKNCMVVQYGDDIIVIDAGLAFPEEEMLGIDIVIPDFTYLLENREKVRGILITHGHEDHIGAVAYLLRNINIPVYATRLTLGLIEGKLAEMGMKLPAESKAVRAGDQVKLGPFTCEFIRVNHSIPDACAIAVTTPVGTILHTGDFKFDQTPIDGEFADYRRLTELGKRGILALLSDSTNAERPGYTPSERSVRPNMERVFREAKGRILMATFASNVHRIQQAIELAAEMGKKVAVVGRSMENTVRIALELGYLNVPEGTMVTVDELRRVPLNQQVILTTGSQGEPMAALSRMAVNDHKAIELYPGDTVLFAATAIPGNEKSVARTVNNLYRRGAEVIYDRSAGVHVSGHASQEEQKLMINLTRPKFFVPIHGEYRMLLKHKQLAEACGIPSENILIGENGTIFEFTRNSAQITGKVTSGQVLVDGLGVGDVGNIVLRDRKQLAQEGILIVVVAVDREEGTIVGGPDMVSRGFVYVRESEGLLDEAKERVKRALADQMQRGLPEWAVLKSSIRDVLSKYLYDKTHRRPMILPIIIEIEGHHHHHH”, the “soluble on expression in E. coli” value is “soluble”.
Consider “MKVISNAEFGGERPLFESHDLRLENVIIRAGESAIKECSNIEAVDCRFEGNYPFWHVHGFVIDRCFFDVGGRSALWYSDNLKMTNTRIDAPKMFREMHDIEIENVEIKDADEVFWRCKNLDIKNLKLHGGTYPFMFSSNIRIDGLESDSKYVFQYVKNVELRNAKITTKDAFWEVENVTIYDSELNGEYLGWHSHNLRLVNCHITGEQPLCYAHDLVLENCTFGPDCDRAFEYSSVQATIKGAIGGVKNPRTGCITAESYGEIILDENIKAPADCKLKLWDEKTCFTD”, for which the “soluble on expression in E. coli” value is “soluble”.
For “RMNVFDEHHFRVILDYAHNADGVRCMSELASKLEVKGKRITVLAGPGDRRDEDIVNIAKAAAGHFDIYICKADDNRRGRGVNEVPELLASSLRAEGIDESQIYCISDEVEAINKGLELANTDDLLMIFGDAITRCWKQIINFNSGHEPEQE”, the “soluble on expression in E. coli” value is “not soluble”.
Take “MKSPIVSANLVTRDNDKIAEKTGNIYESLVVISRRARQISIKIKEELNSKLAEFASKEDNLEEIFENREQIEISKYYERMPKPSTLATEEFLEDKVMFRHTGIASATPRKEDEK”: the “soluble on expression in E. coli” value is “not soluble”.
The entry for “MSLNSTQMNKQVIDKYTQRHELYLEQLLNEIIIPAPQIRSALHYALFSGGKRIRPILVYLAGDLIDVDQGVLDIIAAALELTHCYSLIHDDLPAMDNDDLRRGKPSCHKAFDEATAILVGDGMQALAIEVLLMRLSPLLPAAQVVAITQVLVNASGISGMVSGQSLDLSELAKSSVTEEQLREIHLLKTGKLILACFEMVLAAQHEVSEQIKSALRTYGKHIGLVFQMQDDYLDLYAPTQILGKGRSSDQANQKTTFATLFNKQQLEEEIAVHYQIAMDSLRLFGSKAAALIELTKQLQNRSNLSEGHHHHHH” is “soluble”.
Then “MSTNLNIEVSINLTEIDVNAQLAEFARFQQVRDDSRYAQDVEREFVLGPIRHHRRQLEPSRSAPLASTEQPVAQATTHPSTENARVPALVLRSGSWRALPVAQGGSSHIRIWPVSRSATTTSTATRHPPFTNTSASTSFAPYQRHRGSALQTSECTICFEKPVDPRGCPKCLKVIGCKKCVKKWFDTSASKACPLCRFEWKLHRDNPDVVKISTLEVLKRQKQNRP”, with “not soluble”; and “MLGYAFPSILGNLMSKIYQMDAVDWLKTLENCSVDLFITDPPYESLEKYRQIGTTTRLKESKSSSNQWFSVFPNTRFEELFREVYRVLKKGSHFYLFCDQETMFLAKPIAESVGFKFWKPIVWDKCAIGMGYHYRARYEFILFFEKGKRKLNDLSVPDVLEYKRVWKGYPTEKPVELLEVLIRQSSSENEIVADSFFGSGSTLIAANNLSRKYIGCDISSSAHEYFKNRA”, with “not soluble”; and “MSLICSISNEVPEHPCVSPVSNHVYERRLIEKYIAENGTDPINNQPLSEEQLIDIKVAHPIRPKPPSATSIPAILKALQDEWDAVMLHSFTLRQQLQTTRQELSHALYQHDAACRVIARLTKEVTAAREALATLKPQAGLIVPQAVPSSQPSVVGAGEPMDLGELVGMTPEIIQKLQDKATVLTTERKKRGKTVPEELVKPEELSKYRQVASHVGLHSASIPGILALDLCPSDTNKILTGGADKNVVVFDKSSEQILATLKGHTKKVTSVVFHPSQDLVFSASPDATIRIWSVPNASCVQVVRAHESAVTGLSLHATGDYLLSSSDDQYWAFSDIQTGRVLTKVTDETSGCSLTCAQFHPDGLIFGTGTMDSQIKIWDLKERTNVANFPGHSGPITSIAFSENGYYLATAADDSSVKLWDLRKLKNFKTLQLDNNFEVKSLIFDQSGTYLALGGTDVQIYICKQWTEILHFTEHSGLTTGVAFGHHAKFIASTGMDRSLKFYSL”, with “soluble”.
Then “MFQSSAAPAPQTADVTNPFGNFAAPSAFPTNVPPPAAHSAPFGVQPAPQHSAAPFYANLHQAPPMQSQAPNGHQAAPFGYPNAHPDDLARMTAQMSLNQQGAPAGWNTTTSAVSNNPFGATSAPQPMYTAPMGMYQQPFGAQPMWNPAMAAYGQQYGYGQPVPPQQQHQIQLVHAAMAAKNAAQAQQAQAASADPFGL”, with “not soluble”.
“MSSSSPNSSRSEAVNGRVVVPTGGSRRENSGPARGPAGFSATVLPCDEATKAAFAKDWKDLEQENLSSADYYFNSYAHFGIHEEMIKDSVRTGCYQRAICQNAHLFANKVVLDVGSGTGILSLFAAKAGAKHVYGIECSEIVNIARKIVKENDMEDKVTFVQGKAEEVSLPVEKVDIIISEWMGYFLLYESMLDTVLFCRDKWLKPGGMIFPDKAALYVAAIEDADYKEEKIGYWGNVYGFNFSCVRRCVMEEPIVDTVDENAVSTTSCCVLKLDLLTCTKEDLDFCAPYEITLRRKDFLHAFIAWFDVWFSHCHKPVVLSTGPHCRYTHWKQTVFYMEDVLVADVGDKVEGMIAVKKSQKNPRDLDIKISYTFNPPHAPAAIENTQFYRLR”: the “soluble on expression in E. coli” value was “soluble”.
Then “MHITLRQLEVFAEVLKSGSTTQASVMLALSQSAVSAALTDLEGQLGVQLFDRVGKRLVVNEHGRLLYPRALALLEQAVEIEQLFREDNGAIRIYASSTIGNYILPAVIARYRHDYPQLPIELSVGNSQDVMQAVLDFRVDIGFIEGPCHSTEIISEPWLEDELVVFAAPTSPLARGPVTLEQLAAAPWILRERGSGTRDIVDYLLLSHLPKFEMAMELGNSEAIKHAVRHGLGISCLSRRVIEDQLQAGTLSEVAVPLPRLMRTLWRIHHRQKHLSNALRRFLDYCDPANVPR”, with “not soluble”; and “MGSDKIHHHHHHMSTSVLYHAFNLKGITYRATRFTGDVIEYFADVKEEYIRCPKCGQRKFTFKGQKTRSFHLGPMGRKRCFLVLSLHRIKCNTCDTLWWPDLPFMVGKHRFARSFALIVLDLLRFGTIRWVADYLGVGWDMIKEIHKLKLQRLYRNIPLHKVRYIGIDEFSIRKGHEYMTTVMDLSEGRILYATEGKGKEGILPFLKKLARKGKKLRAVAMDMGISFFSAVREALPNIDVVFDRYHIMALMNQGIENLRRNHQKELDDTGKQTLKGNRFLLLRNYDSLKPDHKERLDALMQANQPLFVMHSMKEQLRLFWEIPEYAQAVTFLDTWCKDAMLSGIKELVKVAKTLSGYRTAILNYFKHHITNAALEGTNNKIKTLKRQAYGFRDMEYFKLRLYHLHTQRYSLTG”, with “not soluble”; and “MEPYVGIVIFELAKSNTSPEENNSFFREDFYIVYADSEEAAHKLVEKRAHEEETPKNAAQDSGPTVTLRHIIDVAPALYGYVDKDCNLYSRHFASLEDYARFEMMLGGKDPLSH”, with “soluble”.
Then “MGSDKIHHHHHHMTKHQNFIETKEYKRFAEFCDACIKYQYIGICYGQPGVGKTLSSRYYTNWNTIEKQVNHRGWEDLASKTTDDILSVNKIFYTAPAEKQTRLSNDLYSISASIDLGQKLHIVNKYGHDHSKHYSDMFKYIDLIIVDEIDRLKVQHLEQLRAIYDEHNLAMIFIGMPGIEKKLSRYPQLYSRIGFAHEFDNLSKDETHHILEYKWQDLGFDLKLEDFTDYEAITTIIKITKGNFRLIHRLFAQIDRIMDINGLDKISTEVVETARDSLVIGIR”, with “not soluble”.
